Experimental data: patent US20260266833A1

molecular target: H3K9me3 peptide; test: fluorescence polarization, FITC-peptide 0.5 nM

Row | Binder | Kd [µM]
1 | Cbx2.VD chromodomain (tags removed) (designed binder) GEDVFAAECILSKRLRKGKLEYLVKWEGWSSKHNSWEPEENILDPRLLLAFQKKEHEKEVQNR | 5
2 | Cbx7.V1 chromodomain (tags removed) (designed binder) SAIGDDIFAVESIRKKRVRKGKVEYLVKWEGWPLEYSTWEPEEHILDPRLVMAYEEKEERDRASGYRKRGPK | 7
3 | Cbx7 Q9D chromodomain (tags removed) (designed binder) SAIGEDVFAVESIRKKRVRKGKVEYLVKWKGWPPKYSTWEPEEHILDPRLVMAYEEKEERDRASGYRKRGPK | 10
4 | Cbx7 K33E chromodomain (tags removed) (designed binder) SAIGEQVFAVESIRKKRVRKGKVEYLVKWEGWPPKYSTWEPEEHILDPRLVMAYEEKEERDRASGYRKRGPK | 20

Next, values leading:

Row | Kd [µM] | Binder
5 | 20 | Cbx8.VD chromodomain (tags removed) (designed binder) GEDVFAAEALLKRRIRKGRMEYLVKWEGWSQKYSTWEPEENILDARLLAAFEEREREMELYGP
6 | 8 | Cbx7.VD chromodomain (tags removed) (designed binder) SAIGEDVFAVESIRKKRVRKGKVEYLVKWEGWPPKYSTWEPEEHILDPRLVMAYEEKEERDRASGYRKRGPK
7 | 30 | Cbx7.wt chromodomain (tags removed), O95931 4-75 (protein) SAIGEQVFAVESIRKKRVRKGKVEYLVKWKGWPPKYSTWEPEEHILDPRLVMAYEEKEERDRASGYRKRGPK

molecular target: H3K9me3 peptide; test: ITC, peptide titrated into the chromodomain, 25 C

Row | Kd [µM] | Binder
8 | 7 | Cbx7.V1 chromodomain (tags removed) (designed binder) SAIGDDIFAVESIRKKRVRKGKVEYLVKWEGWPLEYSTWEPEEHILDPRLVMAYEEKEERDRASGYRKRGPK

molecular target: H3K9me3 peptide; test: BLI, biotinylated peptide on streptavidin tips, steady state

Row | Kd [µM] | Binder
9 | 10 | Cbx7.V1 back-mutant E33K, His6- and Flag-tagged (designed binder, not shown: small tags and cut ends) SAIGDDIFAVESIRKKRVRKGKVEYLVKWKGWPLEYSTWEPEEHILDPRLVMAYEEKEERDRASGYRKRGPK
10 | 3.5 | Cbx7.V1 back-mutant I10V, His6- and Flag-tagged (designed binder, not shown: small tags and cut ends) SAIGDDVFAVESIRKKRVRKGKVEYLVKWEGWPLEYSTWEPEEHILDPRLVMAYEEKEERDRASGYRKRGPK
11 | 2 | Cbx7.V1 back-mutant E38K, His6- and Flag-tagged (designed binder, not shown: small tags and cut ends) SAIGDDIFAVESIRKKRVRKGKVEYLVKWEGWPLKYSTWEPEEHILDPRLVMAYEEKEERDRASGYRKRGPK
12 | 5 | Cbx7.V1 back-mutant D8E, His6- and Flag-tagged (designed binder, not shown: small tags and cut ends) SAIGEDIFAVESIRKKRVRKGKVEYLVKWEGWPLEYSTWEPEEHILDPRLVMAYEEKEERDRASGYRKRGPK
13 | 4.5 | Cbx7.V1 chromodomain, His6- and Flag-tagged (designed binder, not shown: small tags and cut ends) SAIGDDIFAVESIRKKRVRKGKVEYLVKWEGWPLEYSTWEPEEHILDPRLVMAYEEKEERDRASGYRKRGPK
14 | 3 | Cbx7.V1 back-mutant L37P, His6- and Flag-tagged (designed binder, not shown: small tags and cut ends) SAIGDDIFAVESIRKKRVRKGKVEYLVKWEGWPPEYSTWEPEEHILDPRLVMAYEEKEERDRASGYRKRGPK
